Consider one molecule from publication PMC3581573 (2013).

The target of this assay is Recombinant Flag-tagged human PRMT5 (Homo sapiens (Human), UniProt O14744). Kind of assay: anti-Flag pulldown with immunoblot. On the technique in general: A western blot detects proteins with antibodies after separation by electrophoresis.
Recombinant Flag-tagged human PRMT5, sequence (O14744 whole entry): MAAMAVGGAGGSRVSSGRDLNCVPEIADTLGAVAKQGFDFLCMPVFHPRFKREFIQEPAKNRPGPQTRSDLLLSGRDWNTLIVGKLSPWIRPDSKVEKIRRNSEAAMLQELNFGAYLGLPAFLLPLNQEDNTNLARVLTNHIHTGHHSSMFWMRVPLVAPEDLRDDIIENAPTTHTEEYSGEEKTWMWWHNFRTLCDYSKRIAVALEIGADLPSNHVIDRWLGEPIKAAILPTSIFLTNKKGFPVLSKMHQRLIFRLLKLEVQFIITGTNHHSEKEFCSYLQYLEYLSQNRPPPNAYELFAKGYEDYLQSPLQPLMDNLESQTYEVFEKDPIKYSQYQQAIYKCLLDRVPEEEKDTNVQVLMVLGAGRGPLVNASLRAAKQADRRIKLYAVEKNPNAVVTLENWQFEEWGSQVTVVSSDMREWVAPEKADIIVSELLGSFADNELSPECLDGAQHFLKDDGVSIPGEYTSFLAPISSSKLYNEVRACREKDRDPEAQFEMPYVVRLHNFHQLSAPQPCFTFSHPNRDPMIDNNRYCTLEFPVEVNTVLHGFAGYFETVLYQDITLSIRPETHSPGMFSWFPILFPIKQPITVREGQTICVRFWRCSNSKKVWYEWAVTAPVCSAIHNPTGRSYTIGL

B1: Recombinant Xenopus laevis MEP50 alone (protein)
chain: MSKGSAWGRPVTAPACMEVQIGAVRYRRDGALLLAASSLSSRTWGGSIWVFKDPEGAPNESLCTAGVQTEAGVTDVAWVSEKGILVASDSGAVELWEILEKESLLVNKFAKYEHDDIVKTLSVFSDGTQAVSGGKDFSVKVWDLSQKAVLKSYNAHSSEVNCVAACPGKDTIFLSCGEDGRILLWDTRKPKPATRIDFCASDTIPTSVTWHPEKDDTFACGDETGNVSLVNIKNPDSAQTSAVHSQNITGLAYSYHSSPFLASISEDCTVAVLDADFSEVFRDLSHRDFVTGVAWSPLDHSKFTTVGWDHKVLHHHLPSEGRTENLIATKAED
As for B1, the binding result is given as “binds”.
